The Human Domainome abundance scans (Beltran et al. 2025)

B1: POU domain, class 3, transcription factor 2, residues 262 to 338; numbered along this chain, P20265 (parent)
chain: EDTPTSDDLEQFAKQFKQRRIKLGFTQADVGLALGTLYGNVFSQTTICRFEALQLSFKNMCKLKPLLNKWLEEADSS

Variants of: B1
Assay: abundance fitness (aPCA) (normalised: wild type 0, dead -1); higher = more abundant; growth selection in yeast, the domain comes from the species named
Settings: Homo sapiens

Abundance fitness: each site, then its substitutions
I21: Y -0.489, L -0.015, V -0.058, Q 0.005, R -0.195, T -0.179, C -0.204, M 0.01, N -0.311, K -0.112, A -0.236, E -0.004, P -0.805
K17: Q -0.025, W -0.832, C -0.442, N -0.895, T -0.192, R -0.05, E -0.39, F -0.9, M -0.171, I -0.349, S -0.279, G -0.6, P -0.658, D -0.949, V -0.316, L -0.597, H -0.343
G24: Y -0.86, C -0.575, A -0.598, L -0.789, V -0.814, K -0.295, R -0.408, D -0.572, S -0.646, W -0.784, F -1, H -0.466, P -0.714, T -0.914, M -0.821, I -0.94, E -0.641
K22: R -0.054, L -0.04, T -0.143, A 0.009, F -0.096, Y -0.3, E 0.057, S -0.131, P -0.958, I -0.273, N -0.117, C -0.042, V -0.298, M -0.073, D 0.041, Q -0.028, H -0.168
R19: H -0.047, E -0.116, I -0.196, Q -0.113, D -0.334, W -0.379, T -0.049, C -0.162, P -0.961, K 0.035, A -0.057, M -0.1, Y -0.695, F -0.439, N -0.182, S -0.187, V -0.194, G -0.308
T26: I -0.635, W -0.898, H -0.285, G -0.449, V -0.797, K -0.399, S -0.014, M -0.705, D -0.601, E -0.536, Q -0.586, N -0.392, Y -0.89, P -0.553, A -0.417, L -0.758, R -0.457
K14: A -0.008, C -0.136, I -0.267, S -0.073, R -0.077, M -0.082, D -0.012, W -0.182, T -0.121, G -0.251, E 0.018, L -0.058, F -0.337, Q 0.075, V -0.134
R20: H -1.02, K -1.25, L -0.766, A -1.05, W -0.909, C -1.01, N -1.09, D -1.05, Y -0.63, S -0.694, Q -0.87, V -0.728, E -0.712, T -1.13, I -0.794, M -1.29, G -0.938, F -1.03
L9: V -0.107, N -0.394, G -0.605, S -0.564, P -0.483, K -0.606, I 0.074, D -0.497, R -0.716, T -0.289, A -0.491, Q -0.53, E -0.797, W -0.396, C -0.246, H -0.352, Y -0.457
Q11: T -0.049, Y -0.024, M 0.035, C -0.141, D -0.114, W -0.196, S -0.046, H 0.017, K 0, P -0.629, V -0.015, L -0.04, A 0.016, R 0.001, N 0.025, I -0.063, F -0.062, G -0.103
